Data from the DeepSol protein solubility set.

Assay: soluble on expression in E. coli; label from the status in PepcDB or PDB records
For “MGSDKIHHHHHHMKVSVVILNWNGCDMLRTFLPSVIRYSKSEEVEVCVADNGSTDASVEMLREEFPCVRIIVLDQNHGFADGYNLALQQVEAEYVVLLNSDVEVTEHWLEPMISYLDGHPEVAACQPKIRSQRQKEYFEYAGAAGGFIDKYGYPFCRGRIMGVVEKDEGQYDTILPVFWATGAALFIRHADYREAGGLDGRFFAHMEEIDLCWRLRSRGREIVCIPQSTVYHVGGATLKKENPRKTFLNFRNNLVMLYKNLSDEELNKVMRIRTCLDYVAAFTFLLKGQLDNARAVMRARKEYKQICPSFSSSRKENLRKTSLNPIPERIKSSILWQFYVGGCKRFSQLSDLKG”, the “soluble on expression in E. coli” value was “not soluble”. In the case of “MRNIEEDLHKNEEEDPAPEVDDTDIPVDPLLTLLYIRHTLTSPWSSSEERDTAKAAMMEEMEKHNMAPYIRLVCEALGVPLDESKLAEMDAINAKKVAAFDARLKDAVDNLGDTEVRDVLQAKCDHYARIGDLEMCMKTNEECAAKTLATGPKLDLYFQRIRLGIAFSDNDIAAKGITDAHRLMKDGDWERRNRLRVYEGIYHVFIRDFQRGSTLLLDSITTFAAGELLTFQDFVFITVVASLPVLSRPELRKRIVYSPEVNRTGVDDVRELVNSIYDCQYNKVFPNLEVVCQHLRKVVYLSPHVSYFFREMRVLIFTQFLDSYSSVTLESMGAAFGIPVPALDSMLCTLISNERIACKVDRVDGSVETYRGDTTNFDYHRIVKSGDLLLNRIQKLSRLVDM”, the “soluble on expression in E. coli” value is reported as “soluble”. For “MLVAYDSMTGNVKRFIHKLNMPAVQIDEDLVIDEDFILITYTTGFGNVPERVLDFLERNNEKLKGVSASGNRNWGDMFGASADKISTKYEVPIVSKFELSGTNNDVEYFKERVREIATH”, the “soluble on expression in E. coli” value was “soluble”. In the case of “MVPTPKPVVDRMLELADVDETDVLYDLGSGDGRIVIRAARTHGARGVGIEIDPDLVKKARKNAKEAGVADLVEFRQGDLFEADISEATVVTLYLLPSVNQKLRPILFEQLSPGTPVVSHDFDMGRWAPDRTVDLEGDTVYRWTIPLEHHHHHH”, the “soluble on expression in E. coli” value is reported as “not soluble”. In the case of “MLVGLDIGTSKIVAIVAEVLEDGQLNIVGMGHTPSRGLKRGMVVNIESTVQAIQRALEEAELMADCKIHEVFVGIAGSHIKSVNSHGMVAIKDREVTKMDIDRVIETARAVTIPPDH”, the “soluble on expression in E. coli” value is reported as “not soluble”. In the case of “ATSDSNMLLNYVPVYVMLPLGVVNVDNVFEDPDGLKEQLLQLRAAGVDGVMVDVWWGIIELKGPKQYDWRAYRSLLQLVQECGLTLQAIMSFHQCGGNVGDIVNIPIPQWVLDIGESNHDIFYTNRSGTRNKEYLTVGVDNEPIFHGRTAIEIYSDYMKSFRENMSDFLESGLIIDIEVGLGPAGELRYPSYPQSQGWEFPGIGEFQCYDKYLKADFKAAVARAGHPEWELPDDAGKYNDVPESTGFFKSNGTYVTEKGKFFLTWYSNKLLNHGDQILDEANKAFLGCKVKLAIKVSGIHWWYKVENHAAELTAGYYNLNDRDGYRPIARMLSRHHAILNFSCLEMRDSEQPSDAKSGPQELVQQVLSGGWREDIRVAGENALPRYDATAYNQIILNARPQGVNNNGPPKLSMFGVTYLRLSDDLLQKSNFNIFKKFVLKMHADQDYCANPQKYNHAITPLKPSAPKIPIEVLLEATKPTLPFPWLPETDMKVDG”, the “soluble on expression in E. coli” value is reported as “soluble”. With “MAHHHHHHMSSLKYIENSINSNIRVDGRTLSTYRTIEINKNILVSADGSSSVMNEENNVICGIKLSLLTPSLDAPDEGVINLQIDCPASVVANRIKKDHLQIMSSIIYDLCLKNNIDRKKMCILPSTFVWGVDINVMVLNAGGGLLDIISMAIYVALKDTVVPVVKPKKKIDESNTFHHTKCADYQVEIVENQKTNFPYENVPICVSIGEINNKYVYDMSKVEEELVENIFVVAVTSSGKCVAFHKLYGISMEIASILNMTENSSRISHHLFEKINEAIAKIETRSVLV” the “soluble on expression in E. coli” value was “not soluble”. With “MGSDKIHHHHHHMKEVLEVLPKTMKQLVENCKQYDALEEIRVRIGRPLECIAHGEVFFYDYIVTADDAIYLLNKLSHFSIYTMEEELKRGYVTLRGGHRIGLAGKVITEKSTVKMIRDVSSFNIRIARQKIGIAEPLLPYLYESRWLNTMVIGPPQTGKTTLLRDVARCMSQGVSTSKIPSCKVGIVDERSEIAGCVKGIPQYDFGTRVDVLDACPKAEGMMMMIRSMSPDILIVDEIGRKEDSEAIMEAVHAGVQLFISAHGFSYDDVVKRPSLKAVLELGIFDRFVELSKARGPGTVMQVKDKYGKPVLPHRKAESVC” the “soluble on expression in E. coli” value was “not soluble”. In the case of “MAKEFGRPQRVAQEMQKEIALILQREIKDPRLGMMTTVSGVEMSRDLAYAKVYVTFLNDKDEDAVKAGIKALQEASGFIRSLLGKAMRLRIVPELTFFYDNSLVEGMRMSNLVTSVVKHDEERRVNPDDSKEDLEHHHHHH”, the “soluble on expression in E. coli” value is reported as “soluble”. In the case of “MGSDKIHHHHHHMRKIKLIIFPGYYIPHIGGLETHVDEFTKHLSEDENYDIYIFAPNIPKYKEFEIRHNNVKVYRYPAFEIIPNYPVPNIFNIKFWRMFFNLYKIDFDIVMTRTRFFSNTLLGFIFAKLRFKKKKLIHVEHGSAFVKLESEFKNKLSYFYDKTIGKLIFKKADYVVAISKAVKNFILENFVNDKDIPIIYRGLEIEKIESIGEDKKIKEKFKNKIKLCFVGRLYKWKGVENIIKAYVDLPKDLKEKIILIVVGYGEDLERLKKLAGNYLNNGIYFTGKVDFEKAIAIVKASDIYIHSSYKGGGLSSSLLQAMCCGKAIVASPYEGADEVVIDGYNGILLKDNSPEEIKRGIIKLIENNNLRKIYGENAKNFIKENFNWKKSVKEYKKIFERLVN”, the “soluble on expression in E. coli” value is reported as “not soluble”. For “MGNVMEGKSVEELSSTECHQWYKKFMTECPSGQLTLYEFRQFFGLKNLSPSASQYVEQMFETFDFNKDGYIDFMEYVAALSLVLKGKVEQKLRWYFKLYDVDGNGCIDRDELLTIIQAIRAINPCSDTTMTAEEFTDTVFSKIDVNGDGELSLEEFIEGVQKDQMLLDTLTRSLDLTRIVRRLQNGEQDEEGADEAAEAAG”, the “soluble on expression in E. coli” value was “not soluble”. With “MTGEKLLYIETFGCQMNVSDSEKVASLLRGEGYSQTPDSSEADLIIVNTCSVRAKAEHKVYSYLGRFRKLKRDRRLLLGVGGCVAQQEGERLLKRVPWLDLVFGTHNLHLLPEMVRAAEQGERRAAVDFIDNEARLDLFPQADEGGGVTRFVTVMQGCDNFCSYCIVPYVRGREISRRSVEIIGEIRSAVAGGVREVTLLGQNVNSYGLKTPGELSFAGLLREISAIDGLERIRFTTSHPKDISPELIACFAELPKLCGHIHLPAQAGSDSILARMNRGYTRQEYLEKVAALRAARPEILITGDIIVGFPGETEADFLQTLSLMEEVRYTDIFSFAYSPRPETAAASLGDRIMRKETTERLERVQGLQRDMTIERHAGFVGTCQAVLVEGMSKRGDQLYGRTDGNLIVNFAGNPSLAGSLVDVRITRGYPNSLLGELAVFQ” the “soluble on expression in E. coli” value was “soluble”. For “MAHHHHHHMQLSRYSPPPSSSSSSLLSTVMQAKDVVTRLGPSERFPGLCGVFLTKPIKKFHPIEVLPTAASAAATTTTAATADSSAERPDASRSPTSAIVSQAPPFVLNLAFAPRHSISLRRFLALRHMFSTSAYLHVATEDGWYLVAPSSAAPLCPDVTGLQAWCCRHHHRYLKHAATAVTAATSSSTPSSRAPRCSTHTGIAKLEAALDNGEELSEEQLQRLAAQEKAFFAHTPENEEADIDDDTDETDDMPAVREPRHPLSQKTAAPTAETLRKRSAGAPASAFGLSPPLIPEAHLFDINDGVAWLLPPSDDLANHEYWKSHRQRMALYESTGDADAAEQREALLATLRADPAIAQHLSSEQELYAAAEALFQALKHKANVTLNVDADTGLLTLVPLRDLHAGEELLLHYGREWWTGRLLFSLLLSVSDAEMPQIRWIEQLFDHAVDRSEPFPLLIVAHEQRKRPRRGCSGGAKVRKGLKNESSGDGDEQQQQSTQCASLTKPHGDSAETSSTTAMTAELPVSQRKLGRAVLYNTVTHKRATDAAVLAFAVRRSCIEPCFLSRLLAGDAAGGVEPVFYLSEPDKEVPMRVLRRVLLASLRGTTASAQRSIPHKDESASVVAGSAVADTAAAVVDQGAPPQTSTNTGGDGDDGDDAVFSV”, the “soluble on expression in E. coli” value was “soluble”. In the case of “MKSIYIILVNYNNFQDTIECVKSLRKIKNYHNYKVIIVDNDSKNDSVSKIKSFLQDCLLIESKKNLGFAGGNNLGIKYAMKHNADYVLLLNNDTVVENDFLDKLLEVHENYGNVGIVGGKIYYYYDKNRIWYAGGKINKFTGKTKHIGVNEIDEGQYNNISITGYVTGCMMLISKGAIEKCGVMDEKYFLYYEETDWNVRIKNAGFKIMYTPLSKIYHKVSSTTGKSDLIMSYYYDRNRYYFVFKNFNWVCKLSVTLYILVRLYAKLFKAIAINDVKRKHLIEYTIISIKNNIMGEIRV”, the “soluble on expression in E. coli” value is reported as “not soluble”.
